Reference: article PMC9482650, “Quantitative fragmentomics allow affinity mapping of interactomes” (Nature Communications, 2022)

T1: TJP3_3, O95049
T1 sequence (O95049 375-456, limits assumed, looked up): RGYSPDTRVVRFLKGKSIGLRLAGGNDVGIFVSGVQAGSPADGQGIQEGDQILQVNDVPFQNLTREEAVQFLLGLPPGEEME

T2: SNTA1, Q13424
T2 sequence (Q13424 82-180, limits assumed, looked up): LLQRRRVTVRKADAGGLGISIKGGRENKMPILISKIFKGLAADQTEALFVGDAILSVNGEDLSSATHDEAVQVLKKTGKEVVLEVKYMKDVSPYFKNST

T3: DVL3, Q92997
T3 sequence (Q92997 244-331, limits assumed, looked up): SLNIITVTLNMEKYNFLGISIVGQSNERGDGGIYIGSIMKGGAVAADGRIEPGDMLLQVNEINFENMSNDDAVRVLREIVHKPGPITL

T4: LIN7C, Q9NUP9
T4 sequence (Q9NUP9 88-185, limits assumed, looked up): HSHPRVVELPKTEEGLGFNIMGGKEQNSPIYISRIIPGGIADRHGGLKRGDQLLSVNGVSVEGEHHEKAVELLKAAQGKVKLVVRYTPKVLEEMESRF

T5: APBA3_1, O96018
T5 sequence (O96018 389-490, limits assumed, looked up): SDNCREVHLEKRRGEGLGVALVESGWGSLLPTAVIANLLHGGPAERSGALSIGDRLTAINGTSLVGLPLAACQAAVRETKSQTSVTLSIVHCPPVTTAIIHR

T6: SNTG2, Q9NY99
T6 sequence (Q9NY99 68-166, limits assumed, looked up): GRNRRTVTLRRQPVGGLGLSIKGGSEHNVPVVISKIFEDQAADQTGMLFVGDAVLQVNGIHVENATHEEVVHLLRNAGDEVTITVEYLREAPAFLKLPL

T7: HTRA3, P83110
T7 sequence (P83110 354-453, limits assumed, looked up): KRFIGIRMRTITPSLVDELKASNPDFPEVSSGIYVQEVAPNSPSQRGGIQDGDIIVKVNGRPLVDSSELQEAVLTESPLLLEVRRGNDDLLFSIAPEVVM

T8: RHPN1, Q8TCX5
T8 sequence (Q8TCX5 508-602, limits assumed, looked up): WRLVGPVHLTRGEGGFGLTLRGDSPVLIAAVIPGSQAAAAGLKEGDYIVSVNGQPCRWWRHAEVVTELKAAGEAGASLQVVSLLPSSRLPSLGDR

T9: FRMPD1, Q5SYB0
T9 sequence (Q5SYB0 52-145, limits assumed, looked up): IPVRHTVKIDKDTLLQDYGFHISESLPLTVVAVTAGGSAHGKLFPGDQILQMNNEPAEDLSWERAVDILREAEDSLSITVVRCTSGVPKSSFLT

T10: PDZD7_3, Q9H5P4
T10 sequence (Q9H5P4 857-944, limits assumed, looked up): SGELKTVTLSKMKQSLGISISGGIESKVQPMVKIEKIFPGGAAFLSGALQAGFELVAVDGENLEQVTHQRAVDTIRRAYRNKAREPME

T11: TX1BP3, O14907
T11 sequence (O14907 10-122, limits assumed, looked up): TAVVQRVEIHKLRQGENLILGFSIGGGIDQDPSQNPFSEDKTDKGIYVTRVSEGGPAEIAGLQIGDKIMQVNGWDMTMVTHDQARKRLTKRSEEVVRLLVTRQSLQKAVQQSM

T12: PTPN13_1, Q12923
T12 sequence (Q12923 1088-1188, limits assumed, looked up): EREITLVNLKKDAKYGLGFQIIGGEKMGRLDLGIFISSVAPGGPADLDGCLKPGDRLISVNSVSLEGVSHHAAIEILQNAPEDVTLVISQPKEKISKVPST

B1: SLC6A3, Q01959 (peptide)
chain: QFTLRHWLKV
B2: MARCHF4, Q9P2E8 (peptide)
chain: RELVMRVTTV

target: T1, TJP3_3, O95049; assay: holdup assay; parameters: key: below the threshold = too weak to quantify, mostly under pKd 3.1 to 4; conditions: plain residues with an end cap or a label only (N-terminal biotin on a linker: ado-ado)

Row | Binder | pKd
1 | B1 | below the threshold
2 | B2 | below the threshold

target: GORASP1, Q9BQQ3; assay: holdup assay; parameters: key: below the threshold = too weak to quantify, mostly under pKd 3.1 to 4; conditions: plain residues with an end cap or a label only (N-terminal biotin on a linker: ado-ado)
Sequence (Q9BQQ3 1-208): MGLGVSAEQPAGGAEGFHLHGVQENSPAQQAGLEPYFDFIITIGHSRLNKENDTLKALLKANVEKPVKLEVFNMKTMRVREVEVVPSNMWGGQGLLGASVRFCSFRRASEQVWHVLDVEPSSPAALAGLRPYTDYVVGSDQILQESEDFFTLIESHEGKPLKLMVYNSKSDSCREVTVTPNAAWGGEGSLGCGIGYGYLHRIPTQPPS

Row | Binder | pKd
3 | B1 | 4.13
4 | B2 | 4.36

target: GRIP2_3, Q9C0E4; assay: holdup assay; parameters: key: below the threshold = too weak to quantify, mostly under pKd 3.1 to 4; conditions: plain residues with an end cap or a label only (N-terminal biotin on a linker: ado-ado)
Sequence (Q9C0E4 238-339): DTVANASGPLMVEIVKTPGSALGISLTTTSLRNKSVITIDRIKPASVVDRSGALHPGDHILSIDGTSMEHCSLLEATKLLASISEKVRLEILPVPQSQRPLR

Row | Binder | pKd
5 | B1 | below the threshold
6 | B2 | below the threshold

target: FRMPD3, Q5JV73; assay: holdup assay; parameters: key: below the threshold = too weak to quantify, mostly under pKd 3.1 to 4; conditions: plain residues with an end cap or a label only (N-terminal biotin on a linker: ado-ado)
Sequence (Q5JV73 12-100): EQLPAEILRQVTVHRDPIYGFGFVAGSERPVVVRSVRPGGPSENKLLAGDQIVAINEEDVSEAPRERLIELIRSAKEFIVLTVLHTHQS

Row | Binder | pKd
7 | B1 | below the threshold
8 | B2 | below the threshold

target: T2, SNTA1, Q13424; assay: holdup assay; parameters: key: below the threshold = too weak to quantify, mostly under pKd 3.1 to 4; conditions: plain residues with an end cap or a label only (N-terminal biotin on a linker: ado-ado)

Row | Binder | pKd
9 | B1 | below the threshold
10 | B2 | 5.1

target: Inadl_4, Q8NI35; assay: holdup assay; parameters: key: below the threshold = too weak to quantify, mostly under pKd 3.1 to 4; conditions: plain residues with an end cap or a label only (N-terminal biotin on a linker: ado-ado)
Sequence (Q8NI35 547-651): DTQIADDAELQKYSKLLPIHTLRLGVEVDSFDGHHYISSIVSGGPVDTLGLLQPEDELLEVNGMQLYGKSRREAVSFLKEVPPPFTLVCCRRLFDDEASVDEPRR

Row | Binder | pKd
11 | B1 | below the threshold
12 | B2 | below the threshold

target: MAST1, Q9Y2H9; assay: holdup assay; parameters: key: below the threshold = too weak to quantify, mostly under pKd 3.1 to 4; conditions: plain residues with an end cap or a label only (N-terminal biotin on a linker: ado-ado)
Sequence (Q9Y2H9 962-1065): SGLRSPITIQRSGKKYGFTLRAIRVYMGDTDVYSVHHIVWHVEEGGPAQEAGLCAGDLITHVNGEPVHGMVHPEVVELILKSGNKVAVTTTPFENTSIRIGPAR

Row | Binder | pKd
13 | B1 | 4.24
14 | B2 | 4.61

target: T3, DVL3, Q92997; assay: holdup assay; parameters: key: below the threshold = too weak to quantify, mostly under pKd 3.1 to 4; conditions: plain residues with an end cap or a label only (N-terminal biotin on a linker: ado-ado)

Row | Binder | pKd
15 | B1 | below the threshold
16 | B2 | below the threshold

target: T4, LIN7C, Q9NUP9; assay: holdup assay; parameters: key: below the threshold = too weak to quantify, mostly under pKd 3.1 to 4; conditions: plain residues with an end cap or a label only (N-terminal biotin on a linker: ado-ado)

Row | Binder | pKd
17 | B1 | below the threshold
18 | B2 | 4.3

target: T5, APBA3_1, O96018; assay: holdup assay; parameters: key: below the threshold = too weak to quantify, mostly under pKd 3.1 to 4; conditions: plain residues with an end cap or a label only (N-terminal biotin on a linker: ado-ado)

Row | Binder | pKd
19 | B1 | below the threshold
20 | B2 | below the threshold

target: T6, SNTG2, Q9NY99; assay: holdup assay; parameters: key: below the threshold = too weak to quantify, mostly under pKd 3.1 to 4; conditions: plain residues with an end cap or a label only (N-terminal biotin on a linker: ado-ado)

Row | Binder | pKd
21 | B1 | below the threshold
22 | B2 | 4.64

target: ARHGEF12, Q9NZN5-2; assay: holdup assay; parameters: key: below the threshold = too weak to quantify, mostly under pKd 3.1 to 4; conditions: plain residues with an end cap or a label only (N-terminal biotin on a linker: ado-ado)
Sequence (Q9NZN5 other isoform, or with tags, fused parts or gaps): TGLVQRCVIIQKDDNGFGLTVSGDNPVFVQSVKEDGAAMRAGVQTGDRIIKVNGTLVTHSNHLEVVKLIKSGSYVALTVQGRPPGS

Row | Binder | pKd
23 | B1 | below the threshold
24 | B2 | 4.86

target: FRMPD2_2, Q68DX3; assay: holdup assay; parameters: key: below the threshold = too weak to quantify, mostly under pKd 3.1 to 4; conditions: plain residues with an end cap or a label only (N-terminal biotin on a linker: ado-ado)
Sequence (Q68DX3 944-1038): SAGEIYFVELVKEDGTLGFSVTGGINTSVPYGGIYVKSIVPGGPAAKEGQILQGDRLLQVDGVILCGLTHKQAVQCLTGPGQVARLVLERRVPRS

Row | Binder | pKd
25 | B1 | below the threshold
26 | B2 | 4.06

target: Inadl_5, Q8NI35; assay: holdup assay; parameters: key: below the threshold = too weak to quantify, mostly under pKd 3.1 to 4; conditions: plain residues with an end cap or a label only (N-terminal biotin on a linker: ado-ado)
Sequence (Q8NI35 673-780): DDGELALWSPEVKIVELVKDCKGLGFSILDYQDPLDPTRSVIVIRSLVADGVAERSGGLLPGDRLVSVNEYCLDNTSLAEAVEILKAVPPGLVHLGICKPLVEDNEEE

Row | Binder | pKd
27 | B1 | 3.62
28 | B2 | below the threshold

target: T7, HTRA3, P83110; assay: holdup assay; parameters: key: below the threshold = too weak to quantify, mostly under pKd 3.1 to 4; conditions: plain residues with an end cap or a label only (N-terminal biotin on a linker: ado-ado)

Row | Binder | pKd
29 | B1 | below the threshold
30 | B2 | below the threshold

target: PTPN3, P26045; assay: holdup assay; parameters: key: below the threshold = too weak to quantify, mostly under pKd 3.1 to 4; conditions: plain residues with an end cap or a label only (N-terminal biotin on a linker: ado-ado)
Sequence (P26045 505-587): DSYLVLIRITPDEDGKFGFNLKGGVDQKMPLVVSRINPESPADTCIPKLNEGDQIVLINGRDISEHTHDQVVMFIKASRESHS

Row | Binder | pKd
31 | B1 | below the threshold
32 | B2 | 4.54

target: FRMPD2_1, Q68DX3; assay: holdup assay; parameters: key: below the threshold = too weak to quantify, mostly under pKd 3.1 to 4; conditions: plain residues with an end cap or a label only (N-terminal biotin on a linker: ado-ado)
Sequence (Q68DX3 770-861): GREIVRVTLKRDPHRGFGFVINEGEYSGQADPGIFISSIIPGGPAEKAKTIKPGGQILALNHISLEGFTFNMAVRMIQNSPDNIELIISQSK

Row | Binder | pKd
33 | B1 | 3.71
34 | B2 | 3.48

target: T8, RHPN1, Q8TCX5; assay: holdup assay; parameters: key: below the threshold = too weak to quantify, mostly under pKd 3.1 to 4; conditions: plain residues with an end cap or a label only (N-terminal biotin on a linker: ado-ado)

Row | Binder | pKd
35 | B1 | below the threshold
36 | B2 | 4.06

target: DLG2_3, Q15700; assay: holdup assay; parameters: key: below the threshold = too weak to quantify, mostly under pKd 3.1 to 4; conditions: plain residues with an end cap or a label only (N-terminal biotin on a linker: ado-ado)

Row | Binder | pKd
37 | B1 | below the threshold
38 | B2 | 4.93

target: MAGI2_4, Q86UL8; assay: holdup assay; parameters: key: below the threshold = too weak to quantify, mostly under pKd 3.1 to 4; conditions: plain residues with an end cap or a label only (N-terminal biotin on a linker: ado-ado)
Sequence (Q86UL8 772-865): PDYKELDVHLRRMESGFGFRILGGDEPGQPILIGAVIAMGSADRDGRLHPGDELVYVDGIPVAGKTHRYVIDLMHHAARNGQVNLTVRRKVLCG

Row | Binder | pKd
39 | B1 | 3.5
40 | B2 | 4.82

target: T9, FRMPD1, Q5SYB0; assay: holdup assay; parameters: key: below the threshold = too weak to quantify, mostly under pKd 3.1 to 4; conditions: plain residues with an end cap or a label only (N-terminal biotin on a linker: ado-ado)

Row | Binder | pKd
41 | B1 | 3.57
42 | B2 | below the threshold

target: PDZRN4_1, Q6ZMN7; assay: holdup assay; parameters: key: below the threshold = too weak to quantify, mostly under pKd 3.1 to 4; conditions: plain residues with an end cap or a label only (N-terminal biotin on a linker: ado-ado)
Sequence (Q6ZMN7 213-318): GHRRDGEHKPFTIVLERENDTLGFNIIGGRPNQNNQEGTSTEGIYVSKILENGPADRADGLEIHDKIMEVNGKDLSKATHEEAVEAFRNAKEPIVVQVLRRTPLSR

Row | Binder | pKd
43 | B1 | below the threshold
44 | B2 | 3.88

target: T10, PDZD7_3, Q9H5P4; assay: holdup assay; parameters: key: below the threshold = too weak to quantify, mostly under pKd 3.1 to 4; conditions: plain residues with an end cap or a label only (N-terminal biotin on a linker: ado-ado)

Row | Binder | pKd
45 | B1 | below the threshold
46 | B2 | 5.28

target: T11, TX1BP3, O14907; assay: holdup assay; parameters: key: below the threshold = too weak to quantify, mostly under pKd 3.1 to 4; conditions: plain residues with an end cap or a label only (N-terminal biotin on a linker: ado-ado)

Row | Binder | pKd
47 | B1 | below the threshold
48 | B2 | 4.75

target: T12, PTPN13_1, Q12923; assay: holdup assay; parameters: key: below the threshold = too weak to quantify, mostly under pKd 3.1 to 4; conditions: plain residues with an end cap or a label only (N-terminal biotin on a linker: ado-ado)

Row | Binder | pKd
49 | B1 | below the threshold
50 | B2 | below the threshold
